Reference: patent publication US7384761 (RIGEL PHARMACEUTICALS, dated 2008)

Tests used:
Rad9 = biological target: T1, Rad9
T1 chain: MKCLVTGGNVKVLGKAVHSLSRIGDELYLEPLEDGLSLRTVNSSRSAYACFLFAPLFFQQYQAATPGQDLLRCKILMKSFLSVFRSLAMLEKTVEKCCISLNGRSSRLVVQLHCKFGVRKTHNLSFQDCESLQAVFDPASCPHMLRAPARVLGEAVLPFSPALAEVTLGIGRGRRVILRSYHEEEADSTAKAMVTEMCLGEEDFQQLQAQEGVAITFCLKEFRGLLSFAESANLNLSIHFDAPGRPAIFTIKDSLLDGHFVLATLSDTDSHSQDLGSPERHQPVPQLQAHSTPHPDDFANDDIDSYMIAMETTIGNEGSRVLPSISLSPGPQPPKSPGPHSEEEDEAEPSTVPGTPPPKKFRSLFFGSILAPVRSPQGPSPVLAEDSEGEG

[1] = biological target: T2, protein phosphatase 5 (PP5) (Homo sapiens (Human), UniProt P53041 1-499, limits assumed); assay: coimmunoprecipitation, gel
T2 construct: Wildtype PP5; also called protein phosphatase type 5; cell cycle protein
T2 sequence: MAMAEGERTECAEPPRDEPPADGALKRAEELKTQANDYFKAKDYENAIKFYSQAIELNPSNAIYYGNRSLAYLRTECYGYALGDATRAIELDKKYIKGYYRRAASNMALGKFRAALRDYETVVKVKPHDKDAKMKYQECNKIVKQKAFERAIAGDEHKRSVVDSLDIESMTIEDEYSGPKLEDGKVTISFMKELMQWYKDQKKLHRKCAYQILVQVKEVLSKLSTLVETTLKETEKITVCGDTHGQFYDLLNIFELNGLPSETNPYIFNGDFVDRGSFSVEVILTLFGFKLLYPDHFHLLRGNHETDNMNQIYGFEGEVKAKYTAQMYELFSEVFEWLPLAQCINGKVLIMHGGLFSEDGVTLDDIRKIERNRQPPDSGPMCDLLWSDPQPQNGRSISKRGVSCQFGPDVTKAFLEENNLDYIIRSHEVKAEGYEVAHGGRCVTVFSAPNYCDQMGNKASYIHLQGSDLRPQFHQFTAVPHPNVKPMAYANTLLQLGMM

B1: protein phosphatase 5 (PP5) (protein)
chain: T2 sequence
- dephosphorylation of Rad9 (Rad9): cotransfection of PP5 with Rad9 in HeLa cells leads to dephosphorylation of Rad9 which is dependent on phophatase activity of PP5
- dephosphorylation of Rad9 in vitro (Rad9): PP5 dephosphorylates Rad9 directly in vitro

B2: Rad9 (other)
chain: T1 chain
notes: also called human Rad9
- binding result [1]: binds
